From PMC6449189
Read-outs that look alike come from different tables or passages of the source.

How the values were obtained:
Assay in all cases: EMSA
LbCas12a [1] = target: T1, LbCas12a (Lachnospiraceae bacterium ND2006, UniProt A0A5S8WF58 1-1228)
LbCas12a [2] = target: T1, LbCas12a; remark: listed apart in the source
LbCas12a [3] = target: T1, LbCas12a; remark: listed apart in the source
LbCas12a [4] = target: T1, LbCas12a; remark: listed apart in the source

Question: Which results are given for AAUUUCUACUAAGUGUAGAUAAAGUGCUCAUCAUUGGAAAACGU (structured_RNA) [LbCas12a crRNA (24-nt T1) rGJK_007]?
Answer: Kd (LbCas12a [1]): 16.4 ± 2.1 nM; Kd (LbCas12a [2]): 35.8 ± 4.4 nM; Kd (LbCas12a [3]): 17.6 ± 2.4 nM; Kd (LbCas12a [4]): 38.9 ± 4.7 nM
